Reference: the DeepSol protein solubility set

assay: soluble on expression in E. coli; label from the status in PepcDB or PDB records

**Q.** For “MGSDKIHHHHHHMSAIAERSKPSEHMPVLPEFTPLERAIINRLQYGLPLTRTPYKDVADELGVSEVTLLKHLQALLDNGTLTRFGPMFHAGEMGGGLTLAAMRIPEQDFANVTEQVNSFPEVAHNYRREHELNMWFVLATETPEGITETIQRIESLTGYTVYNMPKEQEFHVHLHFEV”, which “soluble on expression in E. coli” value is on record?
**A.** not soluble

**Q.** With “MGSDKIHHHHHHMSAQTRPAPGRHTIRVSEDDCGLGQFGGGAWLSDAALWPSDPSTGRPMTPIVMLTDLFLPSVWLADDMAVTVFAALGRESDAYNRTALRTFTIHQQSELEKIDAGHSKVVLHRRAAREMVRETVMLPRHFVGLQPFDERDAEEEAEDADNGAGMSKQLGRPYWLQDPIHAHPRHYFLSQFVESDLRQQDPAYDGLFADGTGYLFAEQRAKVLREGDTAGYFFIQFT” as the sequence, how does the “soluble on expression in E. coli” value read?
**A.** not soluble

**Q.** With “MGSDKIHHHHHHMSAYPPLNSLRIFEAAARLESFSAAAGELFVTHGAVSKQIKQLEDWLGVQLFERSGGRVRLTDAGWRYLVQVQDGLDLIANATSQLLQPNRQRRLTINSTPTFAAFWLLPRLAGFRSQLPELELHLVTSDRDLSRLDAPFDVAIRRGPGDWPGHIAKPFLKEWELPLCSPALLSRQPLAQAADLTQHTLLHADTRPTAWPRWLTLAGAPELKPACSLHFDKFSLALQAAVDGLGVVLGPLPMAHELIAAGKLVSPLPGPVVTVRDYCWVVPRMSAEDATVATFCRWLEGEAEKAGLSGVESG” as the sequence, how does the “soluble on expression in E. coli” value read?
**A.** not soluble

**Q.** With “MGSDKIHHHHHHMSDFSPIAWTEGMFLRPQHMQQQERFLQHQQARTAKNNNPLAWGVVSYEVNYGLLPLGQFGLDRIDCVFPDNTLACLPEQSPLPTAITVPAGTLDQLVYLVLPVAKSNGMNISSSEQNQITRYSYEDHNIVDTSVGSDAMEVLQVAKLDCRLKLQSEDRSGYVSIAIARVIDVSEEGVIRLDKKFIPACIGIEHIKTLMNMTTEVTGMINQRAEAIAGRLSQSQGTSSSIADFLMLQLLNKYQPIFEHYGVVNHIHPELLFRTLISFSGELSTFSSPNKRPPKFPVYQHDNLTYVFSNTMVIVNHGLSSVLEQSATELILEKTKFGVYFSTIADKSMLDNAEFILAVKANVPHDELRQRLPSQIKIGSVETIRELVNNQLPGIGISNLPVAPRQVPYHAGYHYFQLDKNNSHWIKLKSSGGVAMHISGAYPELQIELWAVSI” as the sequence, how does the “soluble on expression in E. coli” value read?
**A.** not soluble

**Q.** With “MGSDKIHHHHHHMSDIQLSLLNDFQRGFPLTSTPFDAIAQRLGLDVEALLDTLRRLTREGVVSRVGAVFRPNRVGVSTLAAMAVPEGRLDEVARLVSARPEVNHNYEREHRFNLWFVAAAANPAQLEQALHDIEQQTGLAAMRLPMVQDYHIDLGFDLRRSVGLTDRHQQKAAPSRALELDALDYVLVEAIQEGLPLVARPYAEVAAFIGTSEADVLIRLGRLLDHGVIKRLGIVVRHHELGFRANAMVVWNIPDEQVDEFGRCVGASGLVNLCYQRPRRLPEWPYNLFCMIHGKDRDAVLEHLDHLRDQCGLTDFPCEVLFSKRRFKQTGARYLAAQPKAAAEAT” as the sequence, how does the “soluble on expression in E. coli” value read?
**A.** not soluble

**Q.** For “MGSDKIHHHHHHMSDKTDSSQGKSEPESSENNNDKTSVDNSVKSPLTIAISKNTKILALFAIACTLAVSLVSELTKDRIKVQEQQQLLRTLHSIIEPSRYDNDIANDCIMMSAPELGSNKVKTAYIARKAGQVVAVAITSTAPQGYNGNIDFIMAINNDGSVSGVRVLKHQETPGLGDKIEIRKSDWIKSFTGKRILSEDDSRWAVTKDNGMFDQFTGATITPRAVVKGVKSTLNYFNQHKGSLIPRPNACGEALSTTKSISPISEAANEQ”, which “soluble on expression in E. coli” value is on record?
**A.** not soluble

**Q.** Which “soluble on expression in E. coli” value does the source give for “MGSDKIHHHHHHMSDPAGKPCIICVAITGSLPTKENNPAVPITLAEQVESTHEAFEAGASIAHCHVRDDEGRPTSDPDRFAALKEGLERHCPGMIVQLSTGGRSGAGQARGAMLPLCPDMASLSVGSNNFPTRVYENPPDLVDWLAAEMLKYDIKPEIEAFDLSHILQAKRMAGDGRLAGTPYVQFVMGVRNAMPADRDVFDYYIHTVRRLFGEDAPWCAAGIGPSQIVLNEWAISSGGHARTGLEDNVRLDRDRLAPSNAALVGRAVELCEKYERPVATWRQARQILGLRMV” here?
**A.** not soluble

**Q.** Which “soluble on expression in E. coli” value does the source give for “MGSDKIHHHHHHMSDQTRQPNSSSGLSQLLTGRLRSKLAAGVTHLTSGSGPTLDYSSPPGDPGLFGPDSVCWKVHADFTSMMTGGISALLLQALHPLALAGVWDHSAFRTDILGRLRRTATFIAGTTYGNRHDALALVERVKRIHLGVSGVAPDGRPYRASEPALLTWVHVAEVSSFMTAHLRYVNPLLPVAAQDQYFAETARIAEMLGASDIPRSRAGIDAYLLAMQPELVASERTRELVRILMNAPAPSASMRPAGVLMLNAGVDLLPDWAQAMLGFQRYAALRRAVTRPGVRLVAPVIRWALVNGVSKRARRRVAAGVREPE” here?
**A.** not soluble

**Q.** Which “soluble on expression in E. coli” value does the source give for “MGSDKIHHHHHHMSDVIEQYFVKNEPYYRPVADEVKLYEAAYSVRMPMMLKGPTGCGKTRFVEYMAWKLGKPLITVACNEDMTASDLVGRFLLDAQGTRWQDGPLTTAARYGAICYLDEVVEARQDTTVVIHPLTDNRRVLPLEKKGELVGAHPDFQLVISYNPGYQSLMKDLKQSTKQRFGALDFNYPQHDIETEIVSHETGIDSAIADKLVSIAERARNLKGHGLDEGISTRMLIYAGNLIAKGVDVHAACRMALVRPITDDPDMRDALDAAVTTFF” here?
**A.** not soluble

**Q.** Which “soluble on expression in E. coli” value does the source give for “MGSDKIHHHHHHMSDVVLNKGIVIEQLRYGHGNDVLVVDAWQLGTAEHWAIFATDSYSGSLLGRILSGDITPDQGIITGLPQRIGWVSLGQQQALLARELAKDELDYGSSVELLVLECCQGAQQLGPLLQQVGLEHLRLRGFRQLSTGETRRVMLARALAMQPQLLILDDPYAGLDCEHQESLSQLLDEVAKNCQLLLITSRQEELPECISHVALFNTEMLQSGQSIHKLSLPMSIKEWHSHPIMAQLHALSAQRSDELLALLVRQRHKVEDFDPLVEIKNGKVEYVSGLIFSGVNWRIEAGQHWQVRGPNGCGKSTLLGLILGDHPQCYSNDITLFGRPRGSGESIWEIKQRIGIVSSALHLQYRVSCSALDVLLSGFFDSIGLYHKPTKLQHDLAKEWLAILHMSELAHISFKQLEYGQQRLLLIGRALIKKPLLLILDEPYQGLDFINRTLVMRTLEMIAHHHLSQLLYVSHHREDALPSIKHFIDFVRQGDGYSVQVSHL” here?
**A.** not soluble

**Q.** For “MGSDKIHHHHHHMSEAILNICSVSKRFGDNLANDDISLSLGKGEIVALLGENGAGKTTLMSILFGHYVPDSGKVLVEGRELPPGKPRAAIRAGIGMVHQHFSLAPNLTVLENVMAGTERLWHLRSGTSAARRKLHRICQRFGLTVEPDARVGDLSVGEQQRVEILKALYNDAHILVLDEPTAVLTNLEAERLFSTLKDMAREGLSLIFISHKLDEVMAAANRIVVLRGGRKVAERLAKETNKAELAELMVGRRVARPVREPSTPGEVVLKVADVSVSIDGVERLKSIDFSLRAGEVLGIIGVSGNGQTTLAHLLSGTLRRDKGDLLLFGEPIGDLTVDDAVRAGIGRIPEDRNKEGAIGEMAIWENAVLERLPRFSRYGLVDRPSGQAFAGQIIDAFDVRGGRPTTRTRLLSGGNMQKLILGRNLMDRPRILLAAQPARGLDEGAVAAVHERLLEARRAGTAVLLISEDLEEVMALADRIQAIVNGRLSPPIAADSASATKLGLMMAGEWNEEHEVPHAF”, which “soluble on expression in E. coli” value is on record?
**A.** not soluble

**Q.** Which “soluble on expression in E. coli” value does the source give for “MGSDKIHHHHHHMSEAINHGIIKSYVDGLTTSTLLMPNLPTAEHAVALAKNYPGLFVGQHTNFLLGKPCADPCMIPSLVDEQGNFHRSSYYRQQKQVTFVYEEVRLETIAQLTRFKELTGHYPEHFDCHSIGDEVVDQVFLELAEEYGLHTTLKYSGEKEYPPQQGYFQVTHLLESGALSYIHEGVSVENFLEDDFGLLRMPESAIAEMHFDVGYLDQFVLDNSSYTTLRCKELATICDPRVRQWFEEQGIERITFGDLKK” here?
**A.** not soluble

**Q.** For “MGSDKIHHHHHHMSEPVKGAQTVTRALSVLKHISHAHPFGIAIGELSEVSQLDRATTYRLASTLVSFGLVERDAARKYRLGVEAMQLGLSAMRSAPIVGQLQPAMRRLARRTEDTVFLVVRSGDYGHCIHCEEGTYPVKAMVLQVGGMRLLGVGSAGMTLLSMLSDVEVLALYQRHQEEFSRGPSFAKLKRMVGEARERGYADTVDLVTEGVSGVGMRFELSAGSHAAVSVAAIRSRMTPERKKWIAEIIAEELQVSGFTPAYSRVS”, which “soluble on expression in E. coli” value is on record?
**A.** not soluble

**Q.** For “MGSDKIHHHHHHMSFTVATIAREPWPVLNRFLTWHLDQGAERIILYLDDPDDPSLPRLRGEPRIDARPCTPAFWRQIGLKQDARFTRRQRGVLSQAYHELEDGWLLVLDADEMMWMSGRTIPEALATLPDEAQSLRVRSAEQVRLSDGSEAFRTPIERAAVDRVYGDLSGLLRARFGFTYHPEGKSFHRAGQRLNMKLHWAQDANGDRTPGPVWGRAERAYLMHYAAPDYARWRAKVNWRAGASGFVLPVKEQITEIAESNDPEAGYQDLYRTLHGLTDAQALALEAEGGLLRDGPKVLDLGG”, which “soluble on expression in E. coli” value is on record?
**A.** not soluble

**Q.** For “MGSDKIHHHHHHMSGFLTFDFENQAVRAFEHDGQEWFVAVDVCRCLRLENSRQALTRLSDDEKRSCNLNTLTDSKGIIFNAINDSDGIRAGNPNATIVNEPGLYRLIFTSTKPEAERLKRFVFHEVLPALRHTGCFAPEPVIDWEIAREQLSLVREARLAHGKEAAAALWRELGLPMPKDETSDKERRQAQGLMKYVYDFIDECMVFDQKAEVTGKEVYQRYQQWSATNNAPYIMNSSFGRFLIRAGIVKRHVSTGSRYIGVRLKHHIQITDQSS”, which “soluble on expression in E. coli” value is on record?
**A.** not soluble

**Q.** For “MGSDKIHHHHHHMSGKPAARVTDPTTCPVPGHGSNPIVQGSPDVVFDGLPAARQGDASACGSPMISAVSSTVLINGLPAVTLGSIGAHGNVVIGGSGTVLIGDVFTPAPRAPALPLNRNSVPCSGRFQLIDHETGKPVAGRRVRVWSSGGWNAFDTTDADGMTSWIERPTAEILYIDLVQRCDA”, which “soluble on expression in E. coli” value is on record?
**A.** not soluble

**Q.** For “MGSDKIHHHHHHMSGYKVFIVDDEADIALILKLQLEDAGYRTMRARDGIEALDALERESFDLVLLDIRMPRMDGIEVLERIRDRWPDLVVIMMTAHGSEDIAVEAMKKGAVDYISKPFSSDDMKKRVERAIQFNRTRLENERLQRVLDEERRKMGAILRGMADLLVAVDREGRIITINRAAEERFGIAADGVQNQPVELLLKTDIPGERLPCRVVLATGDPCLDVTYAVQAGGGMIPVLSSATPLKGAGGEMMGCVEIIRDISTLKALEREREDFVSMLSHDLKTPITAVVGSIDLVREGRIGPVNAEQRSYLDSAMESCAEMVDMIDTLLDVHRFEAGRMVMAARLEDLGPLMARTLGRFDSVARRAGIALVLTLPDYPLALSLDRNQFARLMGNLIANAIKFTQEGGEIEVSARLLNDPAELVGRIPRESYPDVPLPPLNPHLLITVRDTGVGIPADSLVSIFDRFVQARNRRLGKSTGTGLGLAFCRKVMDAHHGYIWAESVEGEGSSFNMLFPLTNEAYAATGG”, which “soluble on expression in E. coli” value is on record?
**A.** not soluble

**Q.** With “MGSDKIHHHHHHMSHKFKFLTLPHRSGEVANVFIHGYSAGHDMEDRCALRKCIPSSLHNCINIFAFWPSGHWAKFDDWSSKSILAAGRLSFLAGAGLAVADRAFHFNTSRKRATAMGKTLLSQLETYLLKHHPYVSKVNLVGHSLGGRVVIHALLDLQGKPADDSLVIGDVLLMAAASTLSGDEAKTIGERINGKLYNAWSSDDKVLLFNLGENSAGRQEIDHCQNVPMHGFGHTDYWPRLDRVLRASGFHGYRGGLPSAIQPELVIKNPDPVVADHLLYDLLELTSDGIRSQVVKHLRSSSWTKLETEHPLYLLTKEFQLLGGHCLVNLARGKGLKYVQILLMLAEHYGLVSELHDCAQVIEMEALLISKCFQSSFGEEHVLASMQDIVLQIHGLSEKEYFEQVDALAASLTVTSYISTPETPAPVYRKTGSAQTGDSKELVLASGSFLTSFSTLMPTERMKAAVINLKSAVKPGYSALIPAVAAVFYARLKLNNEGLL” as the sequence, how does the “soluble on expression in E. coli” value read?
**A.** not soluble
